Measured values from patent US20260146091A1.

Tests used:
mPD-1 (mouse) = mPD-1 (mouse) (UniProt Q02242); assay: mPD-1/mPD-L1 binding inhibition
mPDL-1 (mouse) = mPDL-1 (mouse) (UniProt Q9EP73); assay: mPD-1/mPD-L1 binding inhibition
Sequence of mPDL-1 (mouse) (Q9EP73 19-239): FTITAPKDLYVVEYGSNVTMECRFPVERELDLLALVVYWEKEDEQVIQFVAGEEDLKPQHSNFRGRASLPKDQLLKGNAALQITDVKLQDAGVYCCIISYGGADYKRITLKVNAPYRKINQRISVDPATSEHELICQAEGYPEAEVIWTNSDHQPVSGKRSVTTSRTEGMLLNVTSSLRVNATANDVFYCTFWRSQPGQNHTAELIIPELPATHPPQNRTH

Sequence of mPD-1 (mouse) (Q02242 25-169): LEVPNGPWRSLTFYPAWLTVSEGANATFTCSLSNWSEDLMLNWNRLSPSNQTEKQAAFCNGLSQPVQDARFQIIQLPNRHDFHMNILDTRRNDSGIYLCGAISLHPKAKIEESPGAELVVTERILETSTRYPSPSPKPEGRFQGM

| Substance | IC50 (mPD-1 (mouse)) | IC50 (mPDL-1 (mouse)) |
| --- | --- | --- |
| Clone RMPI-14 | 31.1 nM | – |
| Clone 10F.9G2 | – | 1.09 nM |
